# Measured values published in the RNAGym collection of RNA variant scans (doi:10.7554/elife.80360).
# B1: Twister Ribozyme (parent)
# chain: AACACUGCCAAUGCCGGUCCCAAGCCCGGAUAAAAGUGGAGGGGGCGG
# Variants of: B1
# Assay: self-cleavage, relative activity (ratio to wild type); higher = more cleavage; co-transcriptional
row,Variant,self-cleavage
1,ACCACUGCCAAUGCCGGUCCCAAGCCCGGAUAAAAGUGAAGGGGGCGG [A2C G39A],0.0656
2,AACACUGCCAAGGCCGGUCCCAAGCCCGGAUAUAAGUGGAGGGGGCGG [U12G A33U],0.868
3,UACAUUGCCAAUGCCGGUCCCAAGCCCGGAUAAAAGUGGAGGGGGCGG [A1U C5U],0.076
4,AACACUGCCAAUGCCGGUCCCAAGGCGGGAUAAAAGUGGAGGGGGCGG [C25G C27G],0.0774
5,AACACUGCCAAUGCCGGUCCCAAGCCAGGAUAAAAGUGGAGGUGGCGG [C27A G43U],0.122
6,AACACUGCCAAUGCCGGUGCGAAGCCCGGAUAAAAGUGGAGGGGGCGG [C19G C21G],0.0223
7,AACACUGCCAAUGCCGGUCCCAAGCCCGAAUAAAAGCGGAGGGGGCGG [G29A U37C],0.444
8,AACACUGGCAAUGCCGGUGCCAAGCCCGGAUAAAAGUGGAGGGGGCGG [C8G C19G],0.0626
9,UACACUGCCAAUGCCGGUACCAAGCCCGGAUAAAAGUGGAGGGGGCGG [A1U C19A],0.0579
10,AACACUGCCAAUGACGGUCCCAAGUCCGGAUAAAAGUGGAGGGGGCGG [C14A C25U],0.699
11,AACACUGCCAAUACCGGUCCCAAGGCCGGAUAAAAGUGGAGGGGGCGG [G13A C25G],0.0804
12,AACACUGCCAAUGCCCGUCCCAAGCCCGGGUAAAAGUGGAGGGGGCGG [G16C A30G],0.31
13,AACACUGCCAAUGCCGGUACCAAGCCCGGAUAAGAGUGGAGGGGGCGG [C19A A34G],0.101
14,AACACCGCCAAUGCCGGUCCCAAGCCCGGAUAAAAGUGGAGGGGGCGG [U6C],0.596
15,AACACUGCCAAUGCCGGUCCCAAGCCCGGUUAAAAGUGGAGGGGGUGG [A30U C46U],0.968
16,AACACUGCCAAUGCCGGUCCCAAGGCCGGAUAAAAGUGGAGGGUGCGG [C25G G44U],0.197
17,AACACUUCCAAUGCCGGUCCCAAGCCCGGAUAAAAGUGAAGGGGGCGG [G7U G39A],0.0425
18,AACAUUGCCAAUGCCGGUCCCAAGCUCGGAUAAAAGUGGAGGGGGCGG [C5U C26U],0.0759
19,AUCACUGCCAAUGCCGGUCCCAAGCCCGGCUAAAAGUGGAGGGGGCGG [A2U A30C],0.182
20,AACACUGCCAAUGCGGGUCCGAAGCCCGGAUAAAAGUGGAGGGGGCGG [C15G C21G],0.0959
21,AACAAUGCCAAUGCCGAUCCCAAGCCCGGAUAAAAGUGGAGGGGGCGG [C5A G17A],0.0903
22,AACAGUGCCAAUACCGGUCCCAAGCCCGGAUAAAAGUGGAGGGGGCGG [C5G G13A],0.115
23,AGCACUGCCAAUGCCGGUCCCAAGCCCGGAUUAAAGUGGAGGGGGCGG [A2G A32U],0.401
24,AACACUGCCAAUACCGGUCCCAAGCCCGGAUAAAAGUGGAGGGGGAGG [G13A C46A],0.715
25,AACACUGCCAAUGCCGGUCCCAAGCCCGUAUAAAAAUGGAGGGGGCGG [G29U G36A],0.481
26,AACACUGCCAAUGCCGGUCCCAAGCCGGGAUAAAAGUGGACGGGGCGG [C27G G41C],0.0915
27,AGCACUGCCAAUGCCGGCCCCAAGCCCGGAUAAAAGUGGAGGGGGCGG [A2G U18C],0.102

row,Variant,self-cleavage
1,AACACUGGCAAUGCCGGUCCCAUGCCCGGAUAAAAGUGGAGGGGGCGG [C8G A23U],0.103
2,AACACUGCCAAUGCCGGUCACAAGCCCGGAUGAAAGUGGAGGGGGCGG [C20A A32G],0.145
3,AACACUGCCAAUGCCGGUCCCAAGCCCGUAUAAAAGUGGAGGGGUCGG [G29U G45U],0.574
4,CACACUGCCAAUGCCGGUCCCAAGCCCGGAUAAAUGUGGAGGGGGCGG [A1C A35U],0.129
5,AACACUGCCAAUGCCGGUCCCAAGACCGGAUAAAAGUGGGGGGGGCGG [C25A A40G],0.0786
6,AACACUGCCAAUGCCGUUCCCAAGCCCGCAUAAAAGUGGAGGGGGCGG [G17U G29C],0.0894
7,AACACUGCCAGUGCCGGUCCCAAGCCCGGAUAAAAGAGGAGGGGGCGG [A11G U37A],0.587
8,AACACUGCCAAUGCCGGUCACAUGCCCGGAUAAAAGUGGAGGGGGCGG [C20A A23U],0.0802
9,GACACUGCCAAUGCCGGUCCCAAUCCCGGAUAAAAGUGGAGGGGGCGG [A1G G24U],0.163
10,AACACUGCCAUUGCCGGUCCUAAGCCCGGAUAAAAGUGGAGGGGGCGG [A11U C21U],0.0941
11,AACACUGCCAAUGCAGGUCCCAAGCCCGGAGAAAAGUGGAGGGGGCGG [C15A U31G],0.76
12,AACACUGGCAAUGCCGGUCCCAAGCCCGGAUAAAAGUUGAGGGGGCGG [C8G G38U],0.158
13,AACACUGCCAAUGUCGGUCCCAAGCCCCGAUAAAAGUGGAGGGGGCGG [C14U G28C],1.01
14,AACAAUGCCAAUGCCGGUCCCAAUCCCGGAUAAAAGUGGAGGGGGCGG [C5A G24U],0.0619
15,AUCACUGCCAAUGCCGGUCCCAAGCCCAGAUAAAAGUGGAGGGGGCGG [A2U G28A],0.409
16,AACACUGCCAAUGUCGGUCCCGAGCCCGGAUAAAAGUGGAGGGGGCGG [C14U A22G],0.319
17,AACACUGCCCAUGCCGGUCCCAAGCUCGGAUAAAAGUGGAGGGGGCGG [A10C C26U],0.508
18,AACACCGCCAAUGCCGGUCCCAAGCCCGGAUAAAAGCGGAGGGGGCGG [U6C U37C],0.0955
19,AACACUGCCAAUGCCGGUCCCAAGCCUGGAUAAAAGUGGAGGCGGCGG [C27U G43C],0.135
20,AACACCGCCAAUGCCGGUCCCAAGCCCGGAUAAAAGUGGAGGGGGAGG [U6C C46A],0.65
21,AACACUGCCAAUGUCGGUCCCAAGCCCGGAUAAAAGUCGAGGGGGCGG [C14U G38C],0.909
22,AAAACUGCCAAUGCCGGUCCCAAGCCCGGAUAAAAGUGGAGGGGACGG [C3A G45A],0.233
23,ACCACUGCCAAUGCCGGUCCCAAGCCCGGAUAAAAGUGGAGGGGGCCG [A2C G47C],0.0493
24,AACACUGCCAAUGCCUGUCCCAAGCCCGGAUAAAAGUGGAGGGGGCGG [G16U],1.07
25,AACACUGCCAAUGCCGGUCCCAAGGCCGAAUAAAAGUGGAGGGGGCGG [C25G G29A],0.564
26,AACACUGCCAAUGCCGGUCCCAAGCCCAGAUAAAAGUGGACGGGGCGG [G28A G41C],0.177
27,AACACUGCCGAUGCCGGUUCCAAGCCCGGAUAAAAGUGGAGGGGGCGG [A10G C19U],1.02
